Assay [1] concerns the target T1, Human-TNFR2-His (human, UniProt P20333 23-257).
T1 construct: Bought protein; also called human TNFR2 protein; TNFR2 protein; not shown: His tag
T1 sequence (looked up): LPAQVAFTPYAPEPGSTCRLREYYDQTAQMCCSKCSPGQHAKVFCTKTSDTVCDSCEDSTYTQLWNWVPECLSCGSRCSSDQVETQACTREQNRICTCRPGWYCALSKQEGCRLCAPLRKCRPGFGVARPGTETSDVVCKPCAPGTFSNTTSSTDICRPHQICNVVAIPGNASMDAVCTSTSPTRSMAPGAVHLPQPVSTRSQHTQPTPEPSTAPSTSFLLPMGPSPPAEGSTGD
The experiment in a line: ELISA: Human-TNFR2-His coated (0.1 ug/mL), antibody titrated, goat anti-human IgG Fc detection (Example 2). As for the experimental part:
(§1) Human-TNFR2-His (manufacturer: SINO, CAT: 10417-H08H, LOT: LC15NO0412) was diluted to 0.1 μg/mL with a coating solution (1×PBS, pH7.4), and coated in 96-well ELISA plate at 100 µL/well overnight at 4° C. The coating solution was poured off. Each well was washed with 1×PBST at 300 μL, washed 4 times with a plate washer, and patted dry on a flat paper. It was blocked with 3% skim milk powder at 300 μL/well, and incubated at 37° C. for 1 h. The blocking solution was poured off, washed 4 times with a plate washer, and patted dry on a flat paper. Negative control and positive control were set up. […] The positive control and antibody were diluted to 10 μg/mL with 3% skim milk powder as the starting concentration, and then diluted by 3-fold gradient (11 gradients in total), and a blank well was set up and only the diluent was added. It was incubated at 37° C. for 1 h at 100 μL/well. The liquid in the well was discarded, washed 4 times with a plate washer, and patted dry on a flat paper. Goat anti-human IgG Fc was diluted with 3% skim milk powder at 1:10000, and incubated at 37° C. for 1 h at 100 μL/well. It was washed 6 times with a plate washer, and patted dry on a flat paper. TMB color developing solution was added at 100 μL/well, and wrapped with aluminum foil. Color development was performed at 37° C. in the dark for 8 min. Termination solution 1M HCl was added to terminate the color development reaction at 100 μL/well. Readings were taken at 450 nm on an ELISA reader.
Background: ELISA stands for enzyme-linked immunosorbent assay.

In assay [2] the target is T2, Human 4-1BB His (human, UniProt Q07011 24-186).
T2 construct: Bought protein; lots 198-2146F1-W6 and 2407c-214FF1-YC; also called human 4-1BB protein; 4-1BB protein; not shown: His tag
T2 sequence (Q07011 24-186 limits assumed): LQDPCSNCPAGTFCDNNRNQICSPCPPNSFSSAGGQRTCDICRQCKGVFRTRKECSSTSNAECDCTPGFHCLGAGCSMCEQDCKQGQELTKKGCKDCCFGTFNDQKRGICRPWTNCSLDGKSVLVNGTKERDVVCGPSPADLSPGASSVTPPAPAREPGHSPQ
The experiment in a line: ELISA: Human 4-1BB His coated (0.2 ug/mL), antibody titrated, goat anti-human IgG Fc detection (Example 3). As for the experimental part:
Human 4-1BB His (manufacturer: Acro, CAT: 41B-H5258, LOT: 198-2146F1-W6) was diluted to 0.2 μg/mL with a coating solution (1×PBS, pH7.4), and coated in 96-well ELISA plate at 100 μL/well overnight at 4° C. The coating solution was poured off. Each well was washed with 1×PBST at 300 μL, washed 4 times with a plate washer, and patted dry on a flat paper. It was blocked with 3% skim milk powder at 300 μL/well, and incubated at 37° C. for 1 h. The blocking solution was poured off, washed 4 times with a plate washer, and patted dry on a flat paper. Negative control and positive control were set up. […] The variable region of the antibody sequence of the positive control consists of SEQ ID NO: 15 and SEQ ID NO: 19, with the addition of the constant region of human IgG1 (SEQ ID NO: 46 and SEQ ID NO: 47). The positive control and antibody were diluted to 10 μg/mL with 3% skim milk powder as the starting concentration, and then diluted by 3-fold gradient (11 gradients in total), and a blank well was set up and only the diluent was added. It was incubated at 37° C. for 1 h at 100 μL/well. The liquid in the well was discarded, washed 4 times with a plate washer, and patted dry on a flat paper. Goat anti-human IgG Fc was diluted with 3% skim milk powder at 1:20000, and incubated at 37° C. for 1 h at 100 μL/well. It was washed 6 times with a plate washer, and patted dry on a flat paper. TMB color developing solution was added at 100 μL/well, and wrapped with aluminum foil. Color development was performed at 37° C. in the dark for 8 min. Termination solution 1M HCl was added to terminate the color development reaction at 100 μL/well. Readings were taken at 450 nm on an ELISA reader.

The target of assay [3] is T3, Human 4-1BB Fc (human, UniProt Q07011 24-186).
T3 construct: same catalogue and lot number as Human 4-1BB His; not shown: Fc
T3 sequence (Q07011 24-186 limits assumed): as above
The experiment in a line: bridging ELISA: Human 4-1BB Fc coated (0.3 ug/mL), antibody titrated, then Human-TNFR2-His (0.3 ug/mL), HRP anti-His detection (Example 4). As for the experimental part:
Human 4-1BB Fc (manufacturer: Acro, CAT: 41B-H5258, LOT: 198-2146F1-W6) was diluted to 0.3 μg/mL with a coating solution (1×PBS, pH7.4) and coated into a 96-well ELISA plate at 100 µL/well at 4° C. overnight. The coating solution was poured off. Each well was washed with 1×PBST at 300 μL, washed 4 times with a plate washer, and patted dry on a flat sheet. It was blocked with 3% skim milk powder at 300 μL/well, and incubated at 37° C. for 1 h. The blocking solution was poured off, washed 4 times with a plate washer, and patted dry on a flat sheet. […] Starting at 50 nM, which was used as the initial concentration for 3-fold dilution, a total of 10 gradients were diluted, and a blank well was set up and only the diluent was added. It was incubated at 37° C. for 1 h at 100 μL/well. The liquid in the well was discarded, washed 4 times with a plate washer, and patted dry on a flat paper. Human-TNFR2-His (manufacturer: Sino, CAT: 10417-H08H, LOT: LC15NO0412) was diluted to 0.3 μg/mL, 100 μL was added to each well, and incubated at room temperature for 1 h. The plate was washed 3 times with PBST, and then the HRP-labeled his antibody was diluted with sample diluent at 1:5000, 100 μ L was added to each well, and incubated at room temperature for 1 h. It was washed 6 times with a plate washer, and patted dry on a flat paper. TMB color developing solution was added at 100 μL/well, and wrapped with aluminum foil. Color development was performed at 37° C. in the dark for 8 min. Termination solution 1M HCl was added to terminate the color development reaction at 100 μL/well. Readings were taken at 450 nm on an ELISA reader.

Assay [4] concerns the target T4, Human TNFR2 mFc (human, UniProt P20333 23-257).
T4 construct: Bought protein; not shown: mFc
T4 sequence (looked up): T1 sequence (looked up)
The experiment in a line: bridging ELISA: Human TNFR2 mFc coated (0.3 ug/mL), antibody titrated, then Human 4-1BB His (0.3 ug/mL), HRP anti-His detection (Example 5). As for the experimental part: (§2) Human TNFR2 mFc (manufacturer: Kaixia, CAT: TN-HM3R2, LOT: 031202) was diluted to 0.3 μg/mL with a coating solution (1×PBS, pH7.4) and coated into a 96-well ELISA plate at 100 μL/well at 4° C. overnight. The coating solution was poured off. Each well was washed with 1×PBST at 300 μL, washed 4 times with a plate washer, and patted dry on a flat paper. It was blocked with 3% skim milk powder at 300 μL/well, and incubated at 37° C. for 1 h. The blocking solution was poured off, washed 4 times with a plate washer, and patted dry on a flat paper. […] Starting at 50 nM, which was used as the initial concentration for 3-fold dilution, a total of 10 gradients were diluted, and a blank well was set up and only the diluent was added. It was incubated at 37° C. for 1 h at 100 µL/well. The liquid in the well was discarded, washed 4 times with a plate washer, and patted dry on a flat paper. Human 4-1BB His (manufacturer: Acro, CAT: 41B-H5258, LOT: 198-2146F1-W6) was diluted to 0.3 μg/mL, 100 μL was added to each well, and incubated at room temperature for 1 h. The plate was washed 3 times with PBST, and then the HRP-labeled his antibody was diluted with sample diluent at 1:5000, 100 μ L was added to each well, and incubated at room temperature for 1 h. It was washed 6 times with a plate washer, and patted dry on a flat paper. TMB color developing solution was added at 100 μL/well, and wrapped with aluminum foil. Color development was performed at 37° C. in the dark for 8 min. Termination solution 1M HCl was added to terminate the color development reaction at 100 μL/well. Readings were taken at 450 nm on an ELISA reader.

For assay [5], the target named is T1, Human-TNFR2-His. Description: ELISA: Human-TNFR2-His coated (0.1 ug/mL), antibody titrated, goat anti-human IgG Fc detection (Example 2). As for the experimental part: as §1
The source holds these as a separate data set.

In assay [6] the target is T2, Human 4-1BB His. The experiment in a line: bridging ELISA: Human TNFR2 mFc coated (0.3 ug/mL), antibody titrated, then Human 4-1BB His (0.3 ug/mL), HRP anti-His detection (Example 5). As for the experimental part: as §2

Read-outs that look alike come from different tables or passages of the source.

B1: Antibody F (bispecific antibody, human IgG1, kappa)
light: DIVMTQSPATLSVSPGERATLSCKASQNVGSNVDWYQQKPGQSPRVLIYKASIRYTGIPARFSGSGSGTEFTLTISILQSEDFAVYFCMQSKSYPITFGQGTKLEIKRTVAAPSVFIFPPSDEQLKSGTASVVCLLNNFYPREAKVQWKVDNALQSGNSQESVTEQDSKDSTYSLSSTLTLSKADYEKHKVYACEVTHQGLSSPVTKSFNRGECGGGGSGGGGSQVQLQESGPGLVKPSETLSLTCTVSGSSLTSYGVHWVRQPPGKCLEGLGVIWPGGSTNYNSALMSRVTISKDNSKSQVSLKMSSLTAADTAVYYCARVTGTWYFDVWGQGTTVTVSSGGGGSGGGGSGGGGSDIQMTQSPSSLSASLGDRVTISCSASQGISNYLNWYQQKPDGTVKLLIYYTSTLHSGVPSRFSGSGSGTDYTLTISSLQPEDIATYYCQQYSKLPWTFGCGTKLEIK
heavy: not shown
notes: IgG1 subtype; full-length TNFR2 antibody with 4-1BB scFv at the C-terminus of the light chains
On to B1, for which the half-maximal effective concentration (EC50 (read off the curve)) (usually the midpoint of the concentration-response curve) in assay [1] is roughly 0.08 nM; in assay [2], roughly 0.3 nM; in assay [3] it was roughly 0.4 nM; in assay [4] it was roughly 0.2 nM.

B2: Antibody B (bispecific antibody, human IgG1, kappa)
light: DIQMTQSPSSLSASLGDRVTISCSASQGISNYLNWYQQKPDGTVKLLIYYTSTLHSGVPSRFSGSGSGTDYTLTISSLQPEDIATYYCQQYSKLPWTFGGGTKLEIKRTVAAPSVFIFPPSDEQLKSGTASVVCLLNNFYPREAKVQWKVDNALQSGNSQESVTEQDSKDSTYSLSSTLTLSKADYEKHKVYACEVTHQGLSSPVTKSFNRGECGGGGSGGGGSEVQLVQSGAEVKKPGATVKISCKVSGYSITDYLLHWVQQAPGKCLEWMGWIDPEDAKTKYGQKFQSRVTITADTSTDTAYMELSSLRSEDTAVYYCAANSGTGTMDAWGQGTLVTVSSGGGGSGGGGSGGGGSDIVMTQSPATLSVSPGERATLSCKASQNVGSNVDWYQQKPGQSPRVLIYKASIRYTGIPARFSGSGSGTEFTLTISILQSEDFAVYFCMQSKSYPITFGCGTKLEIK
heavy: not shown
notes: IgG1 subtype; full-length 4-1BB antibody with TNFR2 scFv at the C-terminus of the light chains
On to B2, for which the binding result in assay [5], in assay [6] and in assay [4] was “binds” throughout.

B3: Antibody D (bispecific antibody, human IgG1, kappa)
light: EVQLVQSGAEVKKPGATVKISCKVSGYSITDYLLHWVQQAPGKCLEWMGWIDPEDAKTKYGQKFQSRVTITADTSTDTAYMELSSLRSEDTAVYYCAANSGTGTMDAWGQGTLVTVSSGGGGSGGGGSGGGGSDIVMTQSPATLSVSPGERATLSCKASQNVGSNVDWYQQKPGQSPRVLIYKASIRYTGIPARFSGSGSGTEFTLTISILQSEDFAVYFCMQSKSYPITFGCGTKLEIKGGGGSGGGGSGGGGSDIQMTQSPSSLSASLGDRVTISCSASQGISNYLNWYQQKPDGTVKLLIYYTSTLHSGVPSRFSGSGSGTDYTLTISSLQPEDIATYYCQQYSKLPWTFGGGTKLEIKRTVAAPSVFIFPPSDEQLKSGTASVVCLLNNFYPREAKVQWKVDNALQSGNSQESVTEQDSKDSTYSLSSTLTLSKADYEKHKVYACEVTHQGLSSPVTKSFNRGEC
heavy: not shown
notes: IgG1 subtype; full-length 4-1BB antibody with TNFR2 scFv at the N-terminus of the light chains
Turning to B3, the binding result in assay [1], in assay [6] and in assay [4] was “binds” in each case.

For the origin of these results see patent US20260049151A1 (SHENGHE CHINA BIOPHARMACEUTICAL, published 2026).
